In publication PMC8809517, “Cofactor-independent RNA editing by a synthetic S-type PPR protein” one finds Kd data, which are given here for 4 molecules.

Where a chain is given by its changes, count along the chain named.

Experiment in all cases: high-throughput RNA pulldown from lysate on Ni-NTA beads; HRP: 50 mM Tris pH 8, 150 mM NaCl, 1 mM beta-mercaptoethanol, 50 ug/ml BSA, 3 ug/ml yeast RNA, 0.5% heparin; ITC and FP: Tris pH 8, 200 mM KCl, 5% glycerol; MST: 50 mM Tris pH 8, 200 mM NaCl, 1 mM DTT, BSA, heparin, 0.05% Tween 20
Common to all, as to settings: tags: N-terminal His-eGFP

Data set [1] addresses T1, GFP-9S library array, motif 4 ND N98A (synthetic construct, N98A).
T1 chain: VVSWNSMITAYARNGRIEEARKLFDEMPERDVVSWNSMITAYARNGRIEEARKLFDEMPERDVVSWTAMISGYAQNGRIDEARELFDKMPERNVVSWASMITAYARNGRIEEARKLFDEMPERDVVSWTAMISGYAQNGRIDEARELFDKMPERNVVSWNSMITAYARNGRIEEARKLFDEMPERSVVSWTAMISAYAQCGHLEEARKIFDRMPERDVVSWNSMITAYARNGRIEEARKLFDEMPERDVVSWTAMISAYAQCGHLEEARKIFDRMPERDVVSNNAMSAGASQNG

For data set [2], the target named is T2, GFP-9S library array, motif 4 ND N98Q;D124R (synthetic construct, N98Q;D124R).
T2 chain: T1 chain with A98Q, D124R

Data set [3] has as its target T3, GFP-9S library array, motif 4 ND N98T;D124V (synthetic construct, N98T;D124V).
T3 chain: T1 chain with A98T, D124V

Data set [4] addresses T4, GFP-9S library array, motif 4 ND N98S (synthetic construct, N98S).
T4 chain: T1 chain with A98S

In data set [5] the target is T5, GFP-9S library array, motif 4 ND N98C;D124A (synthetic construct, N98C;D124A).
T5 chain: T1 chain with A98C, D124A

Regarding AUUAAACGUGA (ssRNA) [IR-rpoA-A], the equilibrium dissociation constant (Kd) – broadly, the constant that tells how readily two partners part at equilibrium – in data set [1] (label: 5' IRDye 800CW) worked out at 223 nM; in data set [2] (label: 5' IRDye 800CW), 201 nM; in data set [3] (label: 5' IRDye 800CW), 31.1 nM; in data set [4] (label: 5' IRDye 800CW) it was 574 nM; in data set [5] (label: 5' IRDye 800CW), 98.2 nM.

For AUUAUACGUGA (ssRNA) [IR-rpoA-U], the Kd was determined as 50.8 nM in data set [1] (label: 5' IRDye 800CW); 138 nM in data set [2] (label: 5' IRDye 800CW); 140 nM in data set [3] (label: 5' IRDye 800CW); 262 nM in data set [4] (label: 5' IRDye 800CW); 159 nM in data set [5] (label: 5' IRDye 800CW).

With AUUACACGUGA (ssRNA) [Cy5-rpoA], the Kd in data set [1] (label: 5' Cy5) was 194 nM; in data set [2] (label: 5' Cy5), 95.2 nM; in data set [3] (label: 5' Cy5), 95.8 nM; in data set [4] (label: 5' Cy5) it was 413 nM; in data set [5] (label: 5' Cy5) it was 114 nM.

Take AUUAGACGUGA (ssRNA) [Cy5-rpoA-G]: the equilibrium dissociation constant (Kd) in data set [1] (label: 5' Cy5) was 156 nM; in data set [2] (label: 5' Cy5) it was 77.7 nM; in data set [3] (label: 5' Cy5), 85.6 nM; in data set [4] (label: 5' Cy5), 17.2 nM; in data set [5] (label: 5' Cy5), 92.3 nM.
